Data from IntAct's records for PubMed 34637754.

B1: Autism susceptibility gene 2 protein homolog (Mus musculus), A0A087WPF7 (parent)
chain: MDGPTRGHGLRKKRRSRSQRDRERRSRAGLGTGAAGGIGAGRTRAPSLASSSGSDKEDNGKPPSSAPSRPRPPRRKRRESTSAEEDIIDGFAMTSFVTFEALEKDVAVKPQERAEKRQTPLTKKKREALTNGLSFHSKKSRLSHSHHYSSDRENDRNLCQHLGKRKKMPKGLRQLKPGQNSCRDSDSESASGESKGFQRSSSRERLSDSSAPSSLGTGYFCDSDSDQEEKASDASSEKLFNTVLVNKDPELGVGALPEHNQDAGPIVPKISGLERSQEKSQDCCKEPVFEPVVLKDPHPQLPQLPSQAQAEPQLQIPSPGPDLVPRTEAPPQFPPPSTQPAQGPPEAQLQPAPLPQVQQRPPRPQSPSHLLQQTLPPVQSHPSSQSLSQPLSAYNSSSLSLNSLSSRSSTPAKTQPAPPHISHHPSASPFPLSLPNHSPLHSFTPTLQPPAHSHHPNMFAPPTALPPPPPLTSGSLQVPGHPAGSTYSEQDILRQELNTRFLASQSADRGASLGPPPYLRTEFHQHQHQHQHTHQHTHQHTFTPFPHAIPPTAIMPTPAPPMFDKYPTKVDPFYRHSLFHSYPPAVSGIPPMIPPTGPFGSLQGAFQPKTSNPIDVAARPGTVPHTLLQKDPRLTDPFRPMLRKPGKWCAMHVHIAWQIYHHQQKVKKQMQSDPHKLDFGLKPEFLSRPPGPSLFGAIHHPHDLARPSTLFSAAGAAHPTGTPFGPPPHHSNFLNPAAHLEPFNRPSTFTGLAAVGGNAFGGLGNPSVTPNSVFGHKDSPSVQNFSNPHEPWNRLHRTPPSFPTPPPWLKPGELERSASAAAHDRDRDVDKRDSSVSKDDKERESVEKRHPSHPSPAPPVPVSALGHNRSSTDPTTRGHLNTEAREKDKPKEKERDHSGSRKDLTTEEHKAKESHLPERDGHSHEGRAAGEEPKQLSRVPSPYVRTPGVDSTRPNSTSSREAEPRKGEPAYENPKKNAEVKVKEERKEDHDLPTEAPQAHRTSEAPPPSSSASASVHPGPLASMPMTVGVTGIHAMNSIGSLDRTRMVTPFMGLSPIPGGERFPYPSFHWDPMRDPLRDPYRDLDMHRRDPLGRDFLLRNDPLHRLSTPRLYEADRSFRDREPHDYSHHHHHHHHPLAVDPRREHERGGHLDERERLHVLREDYEHPRLHPVHPASLDGHLPHPSLLTPGLPSMHYPRISPTAGHQNGLLNKTPPTAALSAPPPLISTLGGRPGSPRRTTPLSAEIRERPPSHTLKDIEAR
B2: Autism susceptibility gene 2 protein (Homo sapiens), Q8WXX7 (parent)
chain: MDGPTRGHGLRKKRRSRSQRDRERRSRGGLGAGAAGGGGAGRTRALSLASSSGSDKEDNGKPPSSAPSRPRPPRRKRRESTSAEEDIIDGFAMTSFVTFEALEKDVALKPQERVEKRQTPLTKKKREALTNGLSFHSKKSRLSHPHHYSSDRENDRNLCQHLGKRKKMPKALRQLKPGQNSCRDSDSESASGESKGFHRSSSRERLSDSSAPSSLGTGYFCDSDSDQEEKASDASSEKLFNTVIVNKDPELGVGTLPEHDSQDAGPIVPKISGLERSQEKSQDCCKEPIFEPVVLKDPCPQVAQPIPQPQTEPQLRAPSPDPDLVQRTEAPPQPPPLSTQPPQGPPEAQLQPAPQPQVQRPPRPQSPTQLLHQNLPPVQAHPSAQSLSQPLSAYNSSSLSLNSLSSSRSSTPAKTQPAPPHISHHPSASPFPLSLPNHSPLHSFTPTLQPPAHSHHPNMFAPPTALPPPPPLTSGSLQVAGHPAGSTYSEQDILRQELNTRFLASQSADRGASLGPPPYLRTEFHQHQHQHQHTHQHTHQHTFTPFPHAIPPTAIMPTPAPPMFDKYPTKVDPFYRHSLFHSYPPAVSGIPPMIPPTGPFGSLQGAFQPKTSNPIDVAARPGTVPHTLLQKDPRLTDPFRPMLRKPGKWCAMHVHIAWQIYHHQQKVKKQMQSDPHKLDFGLKPEFLSRPPGPSLFGAIHHPHDLARPSTLFSAAGAAHPTGTPFGPPPHHSNFLNPAAHLEPFNRPSTFTGLAAVGGNAFGGLGNPSVTPNSMFGHKDGPSVQNFSNPHEPWNRLHRTPPSFPTPPPWLKPGELERSASAAAHDRDRDVDKRDSSVSKDDKERESVEKRHSSHPSPAPVLPVNALGHTRSSTEQIRAHLNTEAREKDKPKERERDHSESRKDLAADEHKAKEGHLPEKDGHGHEGRAAGEEAKQLARVPSPYVRTPVVESARPNSTSSREAEPRKGEPAYENPKKSSEVKVKEERKEDHDLPPEAPQTHRASEPPPPNSSSSVHPGPLASMPMTVGVTGIHPMNSISSLDRTRMMTPFMGISPLPGGERFPYPSFHWDPIRDPLRDPYRELDIHRRDPLGRDFLLRNDPLHRLSTPRLYEADRSFRDREPHDYSHHHHHHHHPLSVDPRREHERGGHLDERERLHMLREDYEHTRLHSVHPASLDGHLPHPSLITPGLPSMHYPRISPTAGNQNGLLNKTPPTAALSAPPPLISTLGGRPVSPRRTTPLSAEIRERPPSHTLKDIEAR

Assays:
[1] = variants of: B1; settings: with ep300_mouse Ep300, B2RWS6
ring2_mouse Rnf2, Q9CQJ4 = variants of: B1; settings: with ring2_mouse Rnf2, Q9CQJ4
ring2_mouse Rnf2, Q9CQJ4, sequence (Q9CQJ4 whole entry): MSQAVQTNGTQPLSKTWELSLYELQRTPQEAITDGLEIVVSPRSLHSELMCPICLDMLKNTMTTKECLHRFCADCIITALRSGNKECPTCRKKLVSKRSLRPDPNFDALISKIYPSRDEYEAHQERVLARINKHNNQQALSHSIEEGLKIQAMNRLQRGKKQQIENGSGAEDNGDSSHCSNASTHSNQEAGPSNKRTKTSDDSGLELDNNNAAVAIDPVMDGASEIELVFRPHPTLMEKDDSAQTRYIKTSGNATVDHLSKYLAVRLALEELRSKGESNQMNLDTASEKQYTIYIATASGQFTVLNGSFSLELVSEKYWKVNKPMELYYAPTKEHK

[2] = variants of: B1; settings: with nf2l1_mouse Nfe2l1, Q61985
nf2l1_mouse Nfe2l1, Q61985, sequence (Q61985 whole entry): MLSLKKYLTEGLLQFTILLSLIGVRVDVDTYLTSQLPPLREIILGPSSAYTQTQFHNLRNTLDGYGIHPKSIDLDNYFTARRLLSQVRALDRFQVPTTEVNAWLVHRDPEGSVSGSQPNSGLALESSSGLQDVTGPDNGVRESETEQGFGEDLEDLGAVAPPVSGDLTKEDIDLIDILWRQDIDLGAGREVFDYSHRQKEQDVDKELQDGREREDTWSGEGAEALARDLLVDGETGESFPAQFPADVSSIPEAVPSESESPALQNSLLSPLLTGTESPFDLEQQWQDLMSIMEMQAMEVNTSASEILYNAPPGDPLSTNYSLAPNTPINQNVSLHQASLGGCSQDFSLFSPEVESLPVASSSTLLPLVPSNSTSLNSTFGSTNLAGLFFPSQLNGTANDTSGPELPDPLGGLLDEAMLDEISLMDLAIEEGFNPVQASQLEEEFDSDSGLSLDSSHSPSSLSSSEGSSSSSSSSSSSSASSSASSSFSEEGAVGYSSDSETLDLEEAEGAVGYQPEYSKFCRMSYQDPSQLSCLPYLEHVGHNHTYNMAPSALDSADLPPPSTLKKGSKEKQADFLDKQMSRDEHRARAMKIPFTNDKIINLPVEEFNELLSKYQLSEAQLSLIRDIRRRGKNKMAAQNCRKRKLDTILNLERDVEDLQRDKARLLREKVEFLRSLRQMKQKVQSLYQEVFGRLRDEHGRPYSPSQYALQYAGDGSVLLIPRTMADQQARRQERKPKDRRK

[3] = variants of: B2; settings: with ep300_human EP300, Q09472
ep300_human EP300, Q09472, sequence (Q09472 whole entry): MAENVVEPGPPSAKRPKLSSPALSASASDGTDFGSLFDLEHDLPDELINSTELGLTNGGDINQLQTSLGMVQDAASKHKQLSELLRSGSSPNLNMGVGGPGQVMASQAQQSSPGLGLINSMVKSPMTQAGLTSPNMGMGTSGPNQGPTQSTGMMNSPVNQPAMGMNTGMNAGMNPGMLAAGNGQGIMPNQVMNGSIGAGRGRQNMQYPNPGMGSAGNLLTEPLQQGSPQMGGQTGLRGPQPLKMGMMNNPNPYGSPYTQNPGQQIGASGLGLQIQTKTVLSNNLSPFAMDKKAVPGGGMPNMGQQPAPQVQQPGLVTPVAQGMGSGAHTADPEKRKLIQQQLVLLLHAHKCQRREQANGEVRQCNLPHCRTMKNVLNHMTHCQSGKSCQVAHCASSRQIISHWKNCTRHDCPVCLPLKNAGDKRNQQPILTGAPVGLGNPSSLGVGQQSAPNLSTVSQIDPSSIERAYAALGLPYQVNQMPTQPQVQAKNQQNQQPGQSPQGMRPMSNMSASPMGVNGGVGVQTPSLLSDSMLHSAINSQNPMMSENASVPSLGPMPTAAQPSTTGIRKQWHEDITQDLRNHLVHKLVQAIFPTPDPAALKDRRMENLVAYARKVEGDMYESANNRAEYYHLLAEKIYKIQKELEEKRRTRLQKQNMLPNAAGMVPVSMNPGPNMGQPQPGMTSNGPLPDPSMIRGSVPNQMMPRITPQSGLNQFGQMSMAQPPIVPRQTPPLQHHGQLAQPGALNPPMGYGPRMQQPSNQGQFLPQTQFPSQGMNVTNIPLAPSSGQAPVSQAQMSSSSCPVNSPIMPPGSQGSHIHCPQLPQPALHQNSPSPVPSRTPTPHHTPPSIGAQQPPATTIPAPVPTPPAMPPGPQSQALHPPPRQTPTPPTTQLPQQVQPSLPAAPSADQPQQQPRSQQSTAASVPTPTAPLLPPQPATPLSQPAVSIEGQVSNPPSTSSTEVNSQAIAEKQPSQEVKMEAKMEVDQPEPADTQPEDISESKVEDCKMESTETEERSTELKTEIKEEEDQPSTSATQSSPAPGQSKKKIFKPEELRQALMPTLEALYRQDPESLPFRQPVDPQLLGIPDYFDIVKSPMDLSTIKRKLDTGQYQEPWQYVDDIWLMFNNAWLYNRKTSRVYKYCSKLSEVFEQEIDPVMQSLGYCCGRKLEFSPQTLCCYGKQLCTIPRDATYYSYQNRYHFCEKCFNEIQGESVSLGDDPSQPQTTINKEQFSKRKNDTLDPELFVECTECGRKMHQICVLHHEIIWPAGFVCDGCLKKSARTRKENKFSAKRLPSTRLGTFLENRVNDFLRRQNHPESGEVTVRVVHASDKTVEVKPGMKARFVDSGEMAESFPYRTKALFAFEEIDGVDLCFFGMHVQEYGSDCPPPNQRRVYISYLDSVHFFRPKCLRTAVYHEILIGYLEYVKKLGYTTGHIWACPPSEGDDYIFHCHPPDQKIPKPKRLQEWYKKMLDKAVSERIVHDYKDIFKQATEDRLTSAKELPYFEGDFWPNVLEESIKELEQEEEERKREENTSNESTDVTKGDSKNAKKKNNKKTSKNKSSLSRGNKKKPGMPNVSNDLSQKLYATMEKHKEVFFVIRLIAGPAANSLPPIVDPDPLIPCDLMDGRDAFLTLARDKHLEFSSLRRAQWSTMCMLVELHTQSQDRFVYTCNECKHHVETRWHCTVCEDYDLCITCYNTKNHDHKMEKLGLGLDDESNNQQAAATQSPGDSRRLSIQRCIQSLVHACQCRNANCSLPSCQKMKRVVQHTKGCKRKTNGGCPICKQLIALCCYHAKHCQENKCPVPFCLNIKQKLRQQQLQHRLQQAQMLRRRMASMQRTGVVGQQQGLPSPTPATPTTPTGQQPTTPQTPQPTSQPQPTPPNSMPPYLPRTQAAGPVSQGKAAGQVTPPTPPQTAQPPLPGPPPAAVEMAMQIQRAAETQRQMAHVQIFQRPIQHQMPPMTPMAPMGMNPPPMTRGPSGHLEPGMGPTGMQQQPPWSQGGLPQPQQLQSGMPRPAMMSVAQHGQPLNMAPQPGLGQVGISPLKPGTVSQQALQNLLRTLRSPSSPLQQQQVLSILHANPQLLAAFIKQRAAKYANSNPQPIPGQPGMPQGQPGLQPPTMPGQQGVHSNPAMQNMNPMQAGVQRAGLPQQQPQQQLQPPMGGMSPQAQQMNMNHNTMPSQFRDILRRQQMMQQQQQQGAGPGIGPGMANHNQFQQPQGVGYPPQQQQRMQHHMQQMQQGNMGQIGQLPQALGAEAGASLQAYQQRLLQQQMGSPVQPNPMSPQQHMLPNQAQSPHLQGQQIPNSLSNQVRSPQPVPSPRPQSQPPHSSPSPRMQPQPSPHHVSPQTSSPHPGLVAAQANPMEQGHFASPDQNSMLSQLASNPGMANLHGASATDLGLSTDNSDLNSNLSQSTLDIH

ring2_human RNF2, Q99496 = variants of: B2; settings: with ring2_human RNF2, Q99496
ring2_human RNF2, Q99496, sequence (Q99496 whole entry): as the sequence (Q9CQJ4 whole entry) above, with V214M counted along it

[4] = variants of: B2; settings: with ep300_human EP300, Q09472; remark: listed apart in the source

Row | effect of a mutation on the interaction [1] | effect of a mutation on the interaction (ring2_mouse Rnf2, Q9CQJ4) | effect of a mutation on the interaction [2] | effect of a mutation on the interaction [3] | effect of a mutation on the interaction (ring2_human RNF2, Q99496) | effect of a mutation on the interaction [4] | Variant
1 | disrupting interaction | with no effect | with no effect | – | – | – | T533P
2 | – | – | – | decreasing interaction | increasing interaction | with no effect | P517L
3 | – | – | – | disrupting interaction | with no effect | – | T534P
